Where no end group is shown, it is not given here.
Molecular target: T1, 6×His标签 (组氨酸标签), 人工抗原6×His-OVA (also: covalently coupled to ovalbumin (OVA), chemistry and site not given here)
T1 construct: also called 多组氨酸标签; hexa组氨酸标签
T1 peptide: HHHHHH
Assay: indirect phage-ELISA of phage-displayed VHH clones after three rounds of panning on 6×His-OVA

B1: 针对His标签的单域重链抗体 (针对组氨酸标签的纳米抗体) (VHH)
VHH: QVQLVESGGGLVQAGGSLRLSCAVSGFTFSANAMSWVRQAPGKGPEWVSSINRGGASAEYADSVKGRFTISRDDAKNTLYLQMNSLKPEDTALYYCARGNYRGSYFNGPRTYWGRGTQVTVSP
notes: From an alpaca (Lama pacos) immune library; also called 抗His标签单域重链抗体
B1: binds.

— patent CN106146655A (UNIV NANCHANG, dated 2016)
